Results on 10 molecules are retold here after patent publication US5521157A, “Modified polypeptide compound with VIP-like activity” (Sanwa Kagaku Kenkyusho Co., Ltd., priority 1993, dated 1996).

Square brackets hold non-standard residues; d marks the D form. Ends that are not written are not given here. Peptide text beside a SMILES is read from it. hSer = N[C@@H](CCO)C(=O)O

Data set [1] in a line: Measurement of elution time in reversed phase HPLC (correlates to hydrophobicity). The data set is classed as physicochemical. The conditions noted are these: reversed phase C-18 column, 40° C., 0.012N hydrochloric acid with 15, 25 and 50% acetonitrile, 50 minutes, 0.8 ml/min. Here is the method: (Measurement of elution time in reversed phase HPLC)
It is well known that the elution time in HPLC with the use of a reversed phase column correlates to the hydrophobicity of a compound (cf. J. Med. Chem., vol. 18, pp. 549-552 (1975) and J. Pharm. Sci., vol. 66, pp. 747-749 (1977)). Thus, the elution time of each of the VIP analog derivatives obtained in the above Reference Production Example and production Examples was measured under the HPLC conditions as specified below. As a control, natural VIP having a human type amino acid sequence (purchased from Peptide Institute, INC.) was employed.
Column: μ-BONDASPHERE C-18 column (manufactured by Millipore Corporation, 3.9 mm×150 mm)
Eluent: eluted with 0.012N hydrochloric containing 15, 25 and 50% of acetonitrile in this order, for 50 minutes
Detection wavelength: 210 nm

The next data set in a line: in vitro. Particulars: male, Hartley, guinea pig, pH 7.8.
The next data set deals with enkephalinase (Homo sapiens, UniProt P08473). The conditions noted are these: incubated with enkephalinase, within 15 minutes; cited from earlier work.
enkephalinase, sequence (P08473 whole entry, species assumed): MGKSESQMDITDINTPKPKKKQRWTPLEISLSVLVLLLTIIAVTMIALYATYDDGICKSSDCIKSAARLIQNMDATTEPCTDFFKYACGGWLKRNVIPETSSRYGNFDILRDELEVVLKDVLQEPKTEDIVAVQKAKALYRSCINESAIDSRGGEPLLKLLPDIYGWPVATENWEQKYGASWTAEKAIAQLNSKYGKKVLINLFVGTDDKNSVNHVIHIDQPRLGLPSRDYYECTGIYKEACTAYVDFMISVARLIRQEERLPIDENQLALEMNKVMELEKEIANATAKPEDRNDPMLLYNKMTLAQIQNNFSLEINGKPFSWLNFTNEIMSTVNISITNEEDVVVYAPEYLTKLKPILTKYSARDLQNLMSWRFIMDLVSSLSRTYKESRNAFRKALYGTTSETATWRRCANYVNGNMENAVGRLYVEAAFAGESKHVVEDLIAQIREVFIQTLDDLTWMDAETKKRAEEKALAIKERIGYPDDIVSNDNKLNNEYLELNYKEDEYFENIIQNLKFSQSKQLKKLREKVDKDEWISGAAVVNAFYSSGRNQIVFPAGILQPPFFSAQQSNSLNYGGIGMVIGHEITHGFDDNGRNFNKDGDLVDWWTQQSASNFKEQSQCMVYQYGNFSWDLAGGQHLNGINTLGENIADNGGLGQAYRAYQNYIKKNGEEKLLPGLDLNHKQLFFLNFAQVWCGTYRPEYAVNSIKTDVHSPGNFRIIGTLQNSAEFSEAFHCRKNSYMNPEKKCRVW
The conditions of data set [2]: broncho-alveolar lavage wash from guinea pig at 37° C.; cited from earlier work.
Data set [3] concerns histamine-induced bronchoconstriction. Description: Duration of bronchoconstriction suppressing activity (Konzett-Rossler method). In kind it is in vivo. Particulars: male guinea pig, drug dropped directly into the respiratory tract, 5 μg/kg histamine intravenously. Here is the method: (Duration of bronchoconstriction suppressing activity)
The inhibitory activity of the VIP analog derivatives, obtained in the Production Examples above, on histamine-induced bronchoconstriction was evaluated on test samples in accordance with a Konzett-Rossler method. Natural type VIP was used as a control.
First, a male guinea pig was fixed under urethane-anesthesia. After cutting the neck of the animal, a canula drug line was inserted into its jugular vein while a canula connected to a Konzett-Rossler device was inserted into its respiratory tract. After dropping a test drug directly into the respiratory tract, the head of the animal was held up for 1 minute to allow the drug to reach the lungs. Subsequently, 5 μg/kg of histamine was intravenously administered to the animal and the bronchoconstriction was measured over time. One minute before the administration of histamine, succinylcholine chloride was intravenously administered to the animal to thereby suppress spontaneous respiration during the experiment. Evaluation was made in the following manner. Before the administration of the test drug, the intensity of bronchoconstriction induced by histamine was measured. Then, after the administration of the test drug, the time required for reducing by 50% the suppression of bronchoconstriction induced by the same dose of histamine as measured above was defined as t50. The t50 of each test drug was determined.

Experimental for in vitro: First, male Hartley guinea pigs (weight: 350-380 g) were anesthetized by intraperitoneally administering urethane. Next, the respiratory tract of each animal was exposed by cutting its neck and 4 ml of physiological saline was slowly injected into the respiratory tract. Then, the injected solution was recovered from the respiratory tract, which is referred to as the broncho-alveolar lavage wash.
1, 2, 3 and 4 hours after the initiation of the incubation, the reaction mixture was collected and the residual concentration of the (SEQ ID NO: 3)-n-hexylamide or the natural type VIP was measure under the following HPLC conditions to thereby determine the half-life thereof.
Column: μ-BONDASPHERE C-18 column (manufactured Waters Co., 3.9 mm×150 mm)
Eluent: eluted with 0.012N hydrochloric containing acetonitrile at a linear gradient concentration from 15 to 25%, for 20 min

“VIP analog-dihexylamide derivative (HSDAVFTGNYTKLRKQLAAKKYLNKALK[hSer]-dihexylamide) [Production Example 6]” gave a Retention time in data set [1] of 41.4 min.

“VIP analog-stearylamide derivative (HSDAVFTGNYTKLRKQLAAKKYLNKALK[hSer]-stearylamide) [Production Example 4]”: in data set [1], the Retention time is on record as 46.8 min. The term half-life denotes the time needed for the level to fall by half in the phase considered. For `CC[C@H](C)[C@H](NC(=O)[C@H](CO)NC(=O)[C@H](CC(N)=O)NC(=O)[C@H](CC(C)C)NC(=O)[C@H](Cc1ccc(O)cc1)NC(=O)[C@H](CCCCN)NC(=O)[C@H](CCCCN)NC(=O)[C@@H](NC(=O)[C@H](C)NC(=O)[C@H](CCSC)NC(=O)[C@H](CCC(N)=O)NC(=O)[C@H](CCCCN)NC(=O)[C@H](CCCN=C(N)N)NC(=O)[C@H](CC(C)C)NC(=O)[C@H](CCCN=C(N)N)NC(=O)[C@@H](NC(=O)[C@H](Cc1ccc(O)cc1)NC(=O)[C@H](CC(N)=O)NC(=O)[C@H](CC(=O)O)NC(=O)[C@@H](NC(=O)[C@H](Cc1ccccc1)NC(=O)[C@@H](NC(=O)[C@H](C)NC(=O)[C@H](CC(=O)O)NC(=O)[C@H](CO)NC(=O)[C@@H](N)Cc1c[nH]cn1)C(C)C)[C@@H](C)O)[C@@H](C)O)C(C)C)C(=O)N[C@@H](CC(C)C)C(=O)N[C@@H](CC(N)=O)C(N)=O` [VIP, vasoactive intestinal polypeptide], the half-life at 330 μg/ml in the data set “in vitro” (cerebrospinal or other body fluid) was 1.2 h. At enkephalinase, the VIP degraded result was “more than 70%”. Also, the half-life entry in data set [2] is “about 1.5 hours”. Regarding “Reference Production Example: basic VIP analog of SEQ ID NO: 3 disclosed in JP-A-6-220090 / EP-A-0,613,904, starting material of the derivatives (HSDAVFTGNYTKLRKQLAAKKYLNKALK[hSer]; ends and bridges not checked) [reference compound]”, the Retention time in data set [1] amounted to 13.8 min. The molecule further came in with a t50 in data set [3] of 26 min.

As to “VIP analog-ethylenediaminemonoamide derivative (HSDAVFTGNYTKLRKQLAAKKYLNKALK[hSer]-{ethylenediamine monoamide}) [Production Example 8]”, in data set [1], the Retention time came out at 12.1 min. In “in vitro” (broncho-alveolar lavage wash), `CCCCCCNC(=O)[C@H](CCO)NC(=O)[C@H](CCCCN)NC(=O)[C@H](CC(C)C)NC(=O)[C@H](C)NC(=O)[C@H](CCCCN)NC(=O)[C@H](CC(N)=O)NC(=O)[C@H](CC(C)C)NC(=O)[C@H](Cc1ccc(O)cc1)NC(=O)[C@H](CCCCN)NC(=O)[C@H](CCCCN)NC(=O)[C@H](C)NC(=O)[C@H](C)NC(=O)[C@H](CC(C)C)NC(=O)[C@H](CCC(N)=O)NC(=O)[C@H](CCCCN)NC(=O)[C@H](CCCNC(=N)N)NC(=O)[C@H](CC(C)C)NC(=O)[C@H](CCCCN)NC(=O)[C@@H](NC(=O)[C@H](Cc1ccc(O)cc1)NC(=O)[C@H](CC(N)=O)NC(=O)CNC(=O)[C@@H](NC(=O)[C@H](Cc1ccccc1)NC(=O)[C@@H](NC(=O)[C@H](C)NC(=O)[C@H](CC(=O)O)NC(=O)[C@H](CO)NC(=O)[C@@H](N)Cc1c[nH]cn1)C(C)C)[C@@H](C)O)[C@@H](C)O` [Production Example 2, VIP analog-n-hexylamide derivative] (HELM PEPTIDE1{H.S.D.A.V.F.T.G.N.Y.T.K.L.R.K.Q.L.A.A.K.K.Y.L.N.K.A.L.K.[O=C([C@H](CCO)N[*:1])[*:2]].[CCCCCCN[*:1]]}$$$$V2.0) showed a half-life at 330 μg/ml of 4.9 h.

As to “VIP analog-n-propylamide derivative (HSDAVFTGNYTKLRKQLAAKKYLNKALK[hSer]-{n‑propylamide}) [Production Example 1]”, the Retention time in data set [1] is 18.0 min. For “VIP analog-triethylenetetraminemonoamide derivative (HSDAVFTGNYTKLRKQLAAKKYLNKALK[hSer]-{triethylenetetramine monoamide}) [Production Example 7]”, the Retention time in data set [1] stood at 10.9 min. Besides, in data set [3], the t50 is listed as 58 min. “VIP analog-laurylamide derivative (HSDAVFTGNYTKLRKQLAAKKYLNKALK[hSer]-laurylamide) [Production Example 3]”: the Retention time in data set [1] came out at 40.0 min. In data set [3], this molecule registered a t50 of 61 min. Take “VIP analog-oleylamide derivative (HSDAVFTGNYTKLRKQLAAKKYLNKALK[hSer]-oleylamide) [Production Example 5]”: the Retention time in data set [1] turned out to be 48.3 min.
